# Source: the supplement of paper PMC10567573
# B1: RTP4 (parent)
# chain: TYWEHWTSQGQVRMRLFGQRCQKC
# Variants of: B1
# Assay: protein stability index of a GFP-peptide fusion (GPS, HEK-293T) (PSI 1-6); higher = more stable
# Details: c terminus: a fixed tail appended
# 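Note: lentivirally expressed fusions sorted by FACS into six bins by GFP to DsRed ratio, PSI derived from sequencing read proportions per bin multiplied by bin number.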
row,Variant,protein stability index
1,TYWEHWSSQGQVRMRLFGQRCQKC [T7S],1.79
2,TYWEHWCSQGQVRMRLFGQRCQKC [T7C],3.39
3,TYWEHWFSQGQVRMRLFGQRCQKC [T7F],1.21
4,TYWEHWDSQGQVRMRLFGQRCQKC [T7D],1.86
5,TYWEHWRSQGQVRMRLFGQRCQKC [T7R],1.98
6,TYWEHWHSQGQVRMRLFGQRCQKC [T7H],1.96
7,TYWEHWASQGQVRMRLFGQRCQKC [T7A],1.53
8,TYWEHWPSQGQVRMRLFGQRCQKC [T7P],2.27
9,TYWEHWYSQGQVRMRLFGQRCQKC [T7Y],1.2
10,TYWEHWLSQGQVRMRLFGQRCQKC [T7L],1.61
11,TYWEHWNSQGQVRMRLFGQRCQKC [T7N],1.76
12,TYWEHWQSQGQVRMRLFGQRCQKC [T7Q],1.77
13,TYWEHWVSQGQVRMRLFGQRCQKC [T7V],1.93
14,TYWEHWKSQGQVRMRLFGQRCQKC [T7K],2.04
15,TYWEHWTSQGQQRMRLFGQRCQKC [V12Q],1.51
16,TYWEHWTSQGQIRMRLFGQRCQKC [V12I],1.61
17,TYWEHWTSQGQYRMRLFGQRCQKC [V12Y],2.65
18,TYWEHWTSQGQKRMRLFGQRCQKC [V12K],1.57
19,TYWEHWTSQGQPRMRLFGQRCQKC [V12P],1.98
20,TYWEHWTSQGQERMRLFGQRCQKC [V12E],2.19
21,TYWEHWTSQGQNRMRLFGQRCQKC [V12N],1.65
22,TYWEHWTSQGQDRMRLFGQRCQKC [V12D],1.7
23,TYWEHWTSQGQTRMRLFGQRCQKC [V12T],2.09
24,TYWEHWTSQGQWRMRLFGQRCQKC [V12W],3.46

row,Variant,protein stability index
1,TYWEHWTSQGQHRMRLFGQRCQKC [V12H],2.21
2,TYWEHWTSQGQCRMRLFGQRCQKC [V12C],2.42
3,TYWEHWTSQGQARMRLFGQRCQKC [V12A],1.04
4,TYWEHWTSQGQRRMRLFGQRCQKC [V12R],1.76
5,TYWMHWTSQGQVRMRLFGQRCQKC [E4M],2.86
6,TYWGHWTSQGQVRMRLFGQRCQKC [E4G],2.45
7,TYWQHWTSQGQVRMRLFGQRCQKC [E4Q],3.01
8,TYWKHWTSQGQVRMRLFGQRCQKC [E4K],3.32
9,TYWIHWTSQGQVRMRLFGQRCQKC [E4I],1.77
10,TYWNHWTSQGQVRMRLFGQRCQKC [E4N],1.1
11,TYWCHWTSQGQVRMRLFGQRCQKC [E4C],1.15
12,TYWPHWTSQGQVRMRLFGQRCQKC [E4P],1.49
13,TYWHHWTSQGQVRMRLFGQRCQKC [E4H],1.71
14,TYWEHWTSQGQVRKRLFGQRCQKC [M14K],2.9
15,TYWEHWTSQGQVRHRLFGQRCQKC [M14H],2.18
16,TYWEHWTSQGQVRWRLFGQRCQKC [M14W],1.77
17,TYWEHWTSQGQVRERLFGQRCQKC [M14E],2.36
18,TYWEHWTSQGQVRFRLFGQRCQKC [M14F],1.63
19,TYWEHWTSQGQVRVRLFGQRCQKC [M14V],1.89
20,TYWEHWTSQGQVRNRLFGQRCQKC [M14N],1.69
21,TYWEHWTSQGQVRLRLFGQRCQKC [M14L],1.39
22,TYWEHWTSQGQVRDRLFGQRCQKC [M14D],2.05
23,TYWEHWTSQGQVRRRLFGQRCQKC [M14R],2.29
24,TYWEHWTSQGQVRTRLFGQRCQKC [M14T],1.84

row,Variant,protein stability index
1,TYWEHWTSQGQVRYRLFGQRCQKC [M14Y],1.9
2,TYWEHWTSQGQVRGRLFGQRCQKC [M14G],2.51
3,TYWEHWTSQGQVRSRLFGQRCQKC [M14S],1.5
4,TYWEHWTSQGQVRCRLFGQRCQKC [M14C],2.58
5,TYWEHWTSQGQVRARLFGQRCQKC [M14A],2
6,TYWEHWTSQGQVRQRLFGQRCQKC [M14Q],1.73
7,TYWEDWTSQGQVRMRLFGQRCQKC [H5D],2.07
8,TYWEYWTSQGQVRMRLFGQRCQKC [H5Y],1.58
9,TYWERWTSQGQVRMRLFGQRCQKC [H5R],1.38
10,TYWEWWTSQGQVRMRLFGQRCQKC [H5W],1.16
11,TYWEGWTSQGQVRMRLFGQRCQKC [H5G],1.62
12,TYWETWTSQGQVRMRLFGQRCQKC [H5T],2.12
13,TYWEAWTSQGQVRMRLFGQRCQKC [H5A],2.43
14,TYWEPWTSQGQVRMRLFGQRCQKC [H5P],3.28
15,TYWENWTSQGQVRMRLFGQRCQKC [H5N],1.59
16,TYWEQWTSQGQVRMRLFGQRCQKC [H5Q],2.43
17,TYWEEWTSQGQVRMRLFGQRCQKC [H5E],2.19
18,TYWEMWTSQGQVRMRLFGQRCQKC [H5M],1.53
19,TYAEHWTSQGQVRMRLFGQRCQKC [W3A],2.07
20,TYQEHWTSQGQVRMRLFGQRCQKC [W3Q],2.51
21,TYEEHWTSQGQVRMRLFGQRCQKC [W3E],1.77
22,TYFEHWTSQGQVRMRLFGQRCQKC [W3F],1.75
23,TYIEHWTSQGQVRMRLFGQRCQKC [W3I],1.69
24,TYTEHWTSQGQVRMRLFGQRCQKC [W3T],3.21

row,Variant,protein stability index
1,TYKEHWTSQGQVRMRLFGQRCQKC [W3K],2.96
2,TYNEHWTSQGQVRMRLFGQRCQKC [W3N],2.98
3,TYYEHWTSQGQVRMRLFGQRCQKC [W3Y],1.54
4,TYPEHWTSQGQVRMRLFGQRCQKC [W3P],2.25
5,TYREHWTSQGQVRMRLFGQRCQKC [W3R],1.73
6,TYCEHWTSQGQVRMRLFGQRCQKC [W3C],5.05
7,TYHEHWTSQGQVRMRLFGQRCQKC [W3H],3.61
8,TYDEHWTSQGQVRMRLFGQRCQKC [W3D],2.88
9,TYMEHWTSQGQVRMRLFGQRCQKC [W3M],2.28
10,TYGEHWTSQGQVRMRLFGQRCQKC [W3G],1.63
11,TYWEHWTSQGQVRMKLFGQRCQKC [R15K],2.31
12,TYWEHWTSQGQVRMFLFGQRCQKC [R15F],1.75
13,TYWEHWTSQGQVRMHLFGQRCQKC [R15H],1.85
14,TYWEHWTSQGQVRMNLFGQRCQKC [R15N],2.1
15,TYWEHWTSQGQVRMCLFGQRCQKC [R15C],3.05
16,TYWEHWTSQGQVRMDLFGQRCQKC [R15D],2.71
17,TYWEHWTSQGQVRMELFGQRCQKC [R15E],2.07
18,TYWEHWTSQGQVRMGLFGQRCQKC [R15G],1.6
19,TYWEHWTSQGQVRMALFGQRCQKC [R15A],2.06
20,TYWEHWTSQGQVRMILFGQRCQKC [R15I],2.12
21,TYWEHWTSQGQVRMLLFGQRCQKC [R15L],1.97
22,TYWEHWTSQGQVRMMLFGQRCQKC [R15M],2.09
